This assay deals with recombinant S. cerevisiae histone H3-H4 (S. cerevisiae, UniProt P61830 1-136; P02309 1-103). The assay can be described thus: pull-down.

B1: GST-Pol32^244-350 (domain or fragment)
chain: DKNNDDLEDLLETTAEDSLMDVPKIQQTKPSETEHSKEPKSEEEPSSFIDEDGYIVTKRPATSTPPRKPSPVVKRALSSSKKQETPSSNKRLKKQGTLESFFKRKAK
As for B1, the binding result is on record as “binds”.

The values are drawn from PMC11313866 (Science Advances, 2024).
